Paper PMC11491553, “Structural insights into the mechanotransducing mechanism of FtsEX in cell division” (MedComm, 2024)

Target: the molecule itself
Experiment: cryo-EM structure; FtsE(E163Q)X with endogenously captured ATP, reconstituted into lipid nanodiscs (MSP1D1, E. coli polar extract, 1:2:200); 2.6 Å

Row | Protein | stoichiometry N
1 | FtsE(E163Q) (enzyme, E. coli K12, gene amplified from genomic DNA; The gene was amplified from genomic DNA and no truncation is mentioned; Removal of the 8×His-SUMO fusion from FtsE is not described; the complex with EnvC was recaptured on nickel; Retains endogenously captured ATP; also called NBD; FtsE of FtsE(E163Q)X; not shown: 8×His, N-terminal, kept) IRFEHVSKAYLGGRQALQGVTFHMQPGEMAFLTGHSGAGKSTLLKLICGIERPSAGKIWFSGHDITRLKNREVPFLRRQIGMIFQDHHLLMDRTVYDNVAIPLIIAGASGDDIRRRVSAALDKVGLLDKAKNFPIQLSGGEQQRVGIARAVVNKPAVLLADQPTGNLDDALSEGILRLFEEFNRVGVTVLMATHDINLISRRSYRMLTLSDGHLHGGVGHE | 2
2 | FtsX (natural protein, E. coli K12, FtsX, E. coli K12, integral membrane protein of FtsEX (four transmembrane helices, periplasmic loop domain); gene amplified from genomic DNA; The gene was amplified from genomic DNA and no truncation or tag on FtsX is mentioned; also called FtsX of FtsEX; TMDs and PLDs) RFRKSVGGSGDGGRNAPKRAKSSPKPVNRKTNVFNEQVRYAFHGALQDLKSKPFATFLTVMVIAISLTLPSVCYMVYKNVNQAATQYYPSPQITVYLQKTLDDDAAAGVVAQLQAEQGVEKVNYLSREDALGEFRNWSGFGGALDMLEENPLPAVAVVIPKLDFQGTESLNTLRDRITQINGIDEVRMDDSWFARLAALTGLVGRVSAMIGVLMVAAVFLVIGNSVRLSIFARRDSINVQKLIGATDGFILRPFLYGGALLGFSGALLSLILSEILVLRLSSAVAEVAQVFGTKFDINGLSFDECLLLLLVCSMIGWVAAWLATVQHLRHFTPE | 2
